{
  "source": "paper PMC8500459",
  "about": "“Novel Homologs of Isopentenyl Phosphate Kinase Reveal Class‐Wide Substrate Flexibility” (Chemcatchem, 2021)",
  "proteins": {"B1": {"name": "MSB (Methanosarcina barkeri 3) (protein)", "chain": "MNVSTEPVILKLGGSVITDKAADQGVVREDSLRRIAKEVSEYRGKMIIVHGAGSFGHTYAKKYQLGKVFDPEGAIVTHESVKKLASRVVDTLNEYGVRAIAVHPMCCTICRNGRIESMYLDNIKLMLENGLVPVLHGDVVMDLELRACVLSGDQIVPYLAKELKITRLGLGSAEDGVLDNDGKTVPEITPKTFEDFKHYIRGSGSTDVTGGMLGKVQELLELSKTSCITSYIFNAGKDDNIYRFLNGEPMGTTISPDKRV", "notes": "N-His6 fusion, pET28a NdeI/EcoRI, codon-optimised synthetic gene, E. coli Rosetta2, Ni-NTA"}, "B2": {"name": "CNG (Candidatus Nitrososphaera gargensis Ga9.2) (protein)", "chain": "MQKLALIKLGGSVVTFKDKPLAANTGAIDGISRVLAQLSTPAIIVHGGGSFGHYWSVKYDMHTKPAGYDPHGVSVVHESMIALNQIIINSMIRAGLNPYGMPPSVFAAGHKPVAAKIKQIYTMAKSEVMPVTFGDVVHMEGNKYSILSGDALMTMLAKVLRPSRVVFATNVDGIYKDMASRELMREIRVTTGRKKRSIEFSKASGADVTGGMQRKVAEAFKIASRGMDVLMVNGLMPERIAEAVVEGTRLQVGTVVKGSRR", "notes": "as for B1"}, "B3": {"name": "MHM (Methanohalophilus mahii DSM 5219) (protein)", "chain": "MNEKNSDITILKIGGSVITDKSSNEGIVREKAIIRIAREISFFEGPLIIVHGAGSFGHPQAKRYSLAYKFSAEGSGVTHRSVASLNELFVNALAQRNVNAVGIHPMGCLVAKEGRISKSFLLAIQMMLEKGITPVLHGDVVMDTVKGSSVISGDQIVPYLASKLNAYRIGVGSAEDGVLDEHGHPIPLITPDNFEIASMHIGGSENTDVTGGMLGKVKEMLDMSRQTKVPSYIFNANAGGNVMSFLRGEMIGTAIKDKA", "notes": "as for B1"}, "B4": {"name": "TCP (Thermococcus paralvinellae) (protein)", "chain": "MIIIKLGGSVISDKEKEYSFHRHIVEQIAEEIAQFYPDESFILVHGGGSFGHPNAREYKITEGLVGDVDRKRIGFSKTHQAMLKLNDLIIQTFLEKGLPAYSVSSSSIFLLENKEVVYGELEILRKLLELKFIPVLFGDTAIALDKGIDILSGDQIVSYLAKMLKPSKVIFLMDVDGIYDRNPKERDAKLIEELNVEEIRHLLESSESAGIDVTGGIGNKLREALKIAKHSEVYFINGKVKENLGKAIRGEKVGTRLRKLEHPKIS", "notes": "as for B1"}},
  "key": {"purified protein": {"substrate": "CC(C)=CCOP(=O)(O)O", "test": "purified protein", "conditions": "ATP 1 mM (2 mM in methods), 25 mM Tris pH 7.8, 5 mM MgCl2, 37 °C"}, "[1]": {"substrate": "C=C(C)CCOP(=O)(O)O", "test": "PK-LDH coupled assay, NADH A340", "type": "biochemical, Methanosarcina barkeri", "conditions": "ATP 1 mM (2 mM in methods), 25 mM Tris pH 7.8, 5 mM MgCl2, 37 °C"}, "[2]": {"substrate": "Nc1ncnc2c1ncn2[C@@H]1O[C@H](COP(=O)(O)OP(=O)(O)OP(=O)(O)O)[C@@H](O)[C@H]1O", "test": "PK-LDH coupled assay, NADH A340", "type": "biochemical, Methanosarcina barkeri", "conditions": "isopentenyl phosphate (1) 1 mM, 25 mM Tris pH 7.8, 5 mM MgCl2, 37 °C"}, "[3]": {"substrate": "O=P(O)(O)OCc1ccccc1", "test": "PK-LDH coupled assay, NADH A340", "type": "biochemical, Methanosarcina barkeri", "conditions": "ATP 1 mM (2 mM in methods), 25 mM Tris pH 7.8, 5 mM MgCl2, 37 °C"}, "[4]": {"substrate": "C=C(C)CCOP(=O)(O)O", "test": "PK-LDH coupled assay, NADH A340", "type": "biochemical, Candidatus Nitrososphaera gargensis", "conditions": "ATP 1 mM (2 mM in methods), 25 mM Tris pH 7.8, 5 mM MgCl2, 37 °C", "from_the_text": "(§1) PK-LDH coupled assay, NADH A340 on CNG"}, "[5]": {"substrate": "Nc1ncnc2c1ncn2[C@@H]1O[C@H](COP(=O)(O)OP(=O)(O)OP(=O)(O)O)[C@@H](O)[C@H]1O", "test": "PK-LDH coupled assay, NADH A340", "type": "biochemical, Candidatus Nitrososphaera gargensis", "conditions": "isopentenyl phosphate (1) 1 mM, 25 mM Tris pH 7.8, 5 mM MgCl2, 37 °C", "from_the_text": "as §1"}, "[6]": {"substrate": "O=P(O)(O)OCc1ccccc1", "test": "PK-LDH coupled assay, NADH A340", "type": "biochemical, Candidatus Nitrososphaera gargensis", "conditions": "ATP 1 mM (2 mM in methods), 25 mM Tris pH 7.8, 5 mM MgCl2, 37 °C", "from_the_text": "as §1"}, "[7]": {"substrate": "C=C(C)CCOP(=O)(O)O", "test": "PK-LDH coupled assay, NADH A340", "type": "biochemical, Methanohalophilus mahii", "conditions": "ATP 1 mM (2 mM in methods), 25 mM Tris pH 7.8, 5 mM MgCl2, 37 °C"}, "[8]": {"substrate": "Nc1ncnc2c1ncn2[C@@H]1O[C@H](COP(=O)(O)OP(=O)(O)OP(=O)(O)O)[C@@H](O)[C@H]1O", "test": "PK-LDH coupled assay, NADH A340", "type": "biochemical, Methanohalophilus mahii", "conditions": "isopentenyl phosphate (1) 1 mM, 25 mM Tris pH 7.8, 5 mM MgCl2, 37 °C"}, "[9]": {"substrate": "O=P(O)(O)OCc1ccccc1", "test": "PK-LDH coupled assay, NADH A340", "type": "biochemical, Methanohalophilus mahii", "conditions": "ATP 1 mM (2 mM in methods), 25 mM Tris pH 7.8, 5 mM MgCl2, 37 °C"}, "[10]": {"substrate": "C=C(C)CCOP(=O)(O)O", "test": "PK-LDH coupled assay, NADH A340", "type": "biochemical, Thermococcus paralvinellae", "conditions": "ATP 1 mM (2 mM in methods), 25 mM Tris pH 7.8, 5 mM MgCl2, 37 °C"}, "[11]": {"substrate": "Nc1ncnc2c1ncn2[C@@H]1O[C@H](COP(=O)(O)OP(=O)(O)OP(=O)(O)O)[C@@H](O)[C@H]1O", "test": "PK-LDH coupled assay, NADH A340", "type": "biochemical, Thermococcus paralvinellae", "conditions": "isopentenyl phosphate (1) 1 mM, 25 mM Tris pH 7.8, 5 mM MgCl2, 37 °C"}, "[12]": {"substrate": "O=P(O)(O)OCc1ccccc1", "test": "PK-LDH coupled assay, NADH A340", "type": "biochemical, Thermococcus paralvinellae", "conditions": "ATP 1 mM (2 mM in methods), 25 mM Tris pH 7.8, 5 mM MgCl2, 37 °C"}},
  "data": [
    {"protein": "B1", "values": [
      {"measurement": "Km", "setting": "purified protein", "result": "32 ± 7", "unit": "µM"},
      {"measurement": "kcat", "setting": "purified protein", "result": 10.1, "unit": "s⁻¹"},
      {"measurement": "kcat/Km", "setting": "purified protein", "result": 310000, "unit": "M⁻¹ s⁻¹"},
      {"measurement": "Km", "setting": "[1]", "result": "27 ± 5", "unit": "µM"},
      {"measurement": "kcat", "setting": "[1]", "result": "10.3 ± 0.4", "unit": "s⁻¹"},
      {"measurement": "kcat/Km", "setting": "[1]", "result": 380000, "unit": "M⁻¹ s⁻¹"},
      {"measurement": "Km", "setting": "[2]", "result": "90 ± 10", "unit": "µM"},
      {"measurement": "kcat", "setting": "[2]", "result": "9.1 ± 0.4", "unit": "s⁻¹"},
      {"measurement": "kcat/Km", "setting": "[2]", "result": 100000, "unit": "M⁻¹ s⁻¹"},
      {"measurement": "Km", "setting": "[3]", "result": "45 ± 8", "unit": "µM"},
      {"measurement": "kcat", "setting": "[3]", "result": "1.23 ± 0.07", "unit": "s⁻¹"},
      {"measurement": "kcat/Km", "setting": "[3]", "result": 27000, "unit": "M⁻¹ s⁻¹"}
    ]},
    {"protein": "B2", "values": [
      {"measurement": "Km", "setting": "purified protein", "result": "390 ± 90", "unit": "µM"},
      {"measurement": "kcat", "setting": "purified protein", "result": 0.87, "unit": "s⁻¹"},
      {"measurement": "kcat/Km", "setting": "purified protein", "result": 2200, "unit": "M⁻¹ s⁻¹"},
      {"measurement": "Km", "setting": "[4]", "result": "61 ± 9", "unit": "µM"},
      {"measurement": "kcat", "setting": "[4]", "result": "1.12 ± 0.05", "unit": "s⁻¹"},
      {"measurement": "kcat/Km", "setting": "[4]", "result": 18000, "unit": "M⁻¹ s⁻¹"},
      {"measurement": "Km", "setting": "[5]", "result": "21 ± 5", "unit": "µM"},
      {"measurement": "kcat", "setting": "[5]", "result": "0.81 ± 0.06", "unit": "s⁻¹"},
      {"measurement": "kcat/Km", "setting": "[5]", "result": 39000, "unit": "M⁻¹ s⁻¹"},
      {"measurement": "Km", "setting": "[6]", "result": "1200 ± 200", "unit": "µM"},
      {"measurement": "kcat", "setting": "[6]", "result": "0.83 ± 0.07", "unit": "s⁻¹"},
      {"measurement": "kcat/Km", "setting": "[6]", "result": 700, "unit": "M⁻¹ s⁻¹"}
    ]},
    {"protein": "B3", "values": [
      {"measurement": "Km", "setting": "purified protein", "result": "36 ± 4", "unit": "µM"},
      {"measurement": "kcat", "setting": "purified protein", "result": 4.1, "unit": "s⁻¹"},
      {"measurement": "kcat/Km", "setting": "purified protein", "result": 120000, "unit": "M⁻¹ s⁻¹"},
      {"measurement": "Km", "setting": "[7]", "result": "50 ± 10", "unit": "µM"},
      {"measurement": "kcat", "setting": "[7]", "result": "5.2 ± 0.4", "unit": "s⁻¹"},
      {"measurement": "kcat/Km", "setting": "[7]", "result": 100000, "unit": "M⁻¹ s⁻¹"},
      {"measurement": "Km", "setting": "[8]", "result": "100 ± 30", "unit": "µM"},
      {"measurement": "kcat", "setting": "[8]", "result": "6.3 ± 0.3", "unit": "s⁻¹"},
      {"measurement": "kcat/Km", "setting": "[8]", "result": 63000, "unit": "M⁻¹ s⁻¹"},
      {"measurement": "Km", "setting": "[9]", "result": "70 ± 10", "unit": "µM"},
      {"measurement": "kcat", "setting": "[9]", "result": "0.139 ± 0.008", "unit": "s⁻¹"},
      {"measurement": "kcat/Km", "setting": "[9]", "result": 1900, "unit": "M⁻¹ s⁻¹"}
    ]},
    {"protein": "B4", "values": [
      {"measurement": "Km", "setting": "purified protein", "result": "70 ± 10", "unit": "µM"},
      {"measurement": "kcat", "setting": "purified protein", "result": 24, "unit": "s⁻¹"},
      {"measurement": "kcat/Km", "setting": "purified protein", "result": 360000, "unit": "M⁻¹ s⁻¹"},
      {"measurement": "Km", "setting": "[10]", "result": "22 ± 6", "unit": "µM"},
      {"measurement": "kcat", "setting": "[10]", "result": "0.62 ± 0.03", "unit": "s⁻¹"},
      {"measurement": "kcat/Km", "setting": "[10]", "result": 28000, "unit": "M⁻¹ s⁻¹"},
      {"measurement": "Km", "setting": "[11]", "result": "15 ± 3", "unit": "µM"},
      {"measurement": "kcat", "setting": "[11]", "result": "0.59 ± 0.03", "unit": "s⁻¹"},
      {"measurement": "kcat/Km", "setting": "[11]", "result": 39000, "unit": "M⁻¹ s⁻¹"},
      {"measurement": "Km", "setting": "[12]", "result": "69 ± 10", "unit": "µM"},
      {"measurement": "kcat", "setting": "[12]", "result": "0.039 ± 0.002", "unit": "s⁻¹"},
      {"measurement": "kcat/Km", "setting": "[12]", "result": 560, "unit": "M⁻¹ s⁻¹"}
    ]}
  ]
}
